In ChEMBL document CHEMBL1139472, “Synthesis of N-{4-[(2,4-diamino-5-methyl-4,7-dihydro-3H-pyrrolo[2,3-d]pyrimidin-6-yl)thio]benzoyl}-L-glutamic acid and N-{4-[(2-amino-4-oxo-5-methyl-4,7-dihydro-3H-pyrrolo[2,3-d]pyrimidin-6-yl)thio]benzoyl}-L-glutamic acid as dual inhibitors of dihydrofolate reductase and thymidylate synthase and …” (J Med Chem, 2005):

Legend:
[1] = substrate: Cc1c(Sc2ccc(C(=O)N[C@@H](CCC(=O)O)C(=O)O)cc2)[nH]c2nc(N)[nH]c(=O)c12; assay: Activity of human recombinant cytosolic FPGS
[2] = substrate: Cc1c(Sc2ccc(C(=O)N[C@@H](CCC(=O)O)C(=O)O)cc2)[nH]c2nc(N)[nH]c(=O)c12; assay: (§1) Activity of human recombinant cytosolic FPGS relative to aminopterin
[3] = substrate: Nc1nc(N)c2nc(CNc3ccc(C(=O)N[C@@H](CCC(=O)O)C(=O)O)cc3)cnc2n1; assay: as §1

B1: Folylpolyglutamate synthase, mitochondrial (Homo sapiens), Q05932 (protein)
chain: MSRARSHLRAALFLAAASARGITTQVAARRGLSAWPVPQEPSMEYQDAVRMLNTLQTNAGYLEQVKRQRGDPQTQLEAMELYLARSGLQVEDLDRLNIIHVTGTKGKGSTCAFTECILRSYGLKTGFFSSPHLVQVRERIRINGQPISPELFTKYFWRLYHRLEETKDGSCVSMPPYFRFLTLMAFHVFLQEKVDLAVVEVGIGGAYDCTNIIRKPVVCGVSSLGIDHTSLLGDTVEKIAWQKGGIFKQGVPAFTVLQPEGPLAVLRDRAQQISCPLYLCPMLEALEEGGPPLTLGLEGEHQRSNAALALQLAHCWLQRQDRHGAGEPKASRPGLLWQLPLAPVFQPTSHMRLGLRNTEWPGRTQVLRRGPLTWYLDGAHTASSAQACVRWFRQALQGRERPSGGPEVRVLLFNATGDRDPAALLKLLQPCQFDYAVFCPNLTEVSSTGNADQQNFTVTLDQVLLRCLEHQQHWNHLDEEQASPDLWSAPSPEPGGSASLLLAPHPPHTCSASSLVFSCISHALQWISQGRDPIFQPPSPPKGLLTHPVAHSGASILREAAAIHVLVTGSLHLVGGVLKLLEPALSQ
Question: With B1 as the protein, how does the Km [1] read?
Answer: 5.1 µM

Question: And the Vmax [2]?
Answer: 0.29

Question: What about the Vmax [3] of the same protein?
Answer: 1
